Experiments:
Experiment in all cases: cell-based or functional assay
[1] = molecular target: HIV-1 Env of pseudovirus NIH-008_WEAU.d15.410.787 (HIV-1)
[2] = molecular target: HIV-1 Env of NIH-104_3103.v3.c10 (HIV-1)
[3] = molecular target: HIV-1 Env of NIH-100_6041.v3.c23 (HIV-1)
[4] = molecular target: HIV-1 Env of NIH-117_T278.5 (HIV-1)
[5] = molecular target: HIV-1 Env of pseudovirus NIH-086_X2131 C1 B5 (clade G) (HIV-1)
[6] = molecular target: HIV-1 Env of pseudovirus NIH-006_AC10.0.29 (HIV-1)
[7] = molecular target: HIV-1 Env of pseudovirus NIH-116_T263.8 (HIV-1)
[8] = molecular target: HIV-1 Env of pseudovirus NIH-079_BJOX010000.06.2 (HIV-1)
[9] = molecular target: HIV-1 Env of pseudovirus NIH-053_CNE52 (HIV-1)
[10] = molecular target: HIV-1 Env of NIH-073_C3347.c11 (HIV-1)
[11] = molecular target: HIV-1 Env of NIH-014_6244.13.B5.4567 (HIV-1)
[12] = molecular target: HIV-1 Env of NIH-108_T235.47 (HIV-1)
[13] = molecular target: HIV-1 Env of pseudovirus NIH-115_928.28 (HIV-1)
[14] = molecular target: HIV-1 Env of pseudovirus NIH-084_X1254 c3 (clade G) (HIV-1)
[15] = molecular target: HIV-1 Env of pseudovirus NIH-057_MS208.A1 (HIV-1)
[16] = molecular target: HIV-1 Env of pseudovirus NAC_JRCSF (HIV-1) (UniProt P20871)
HIV-1 Env of pseudovirus NAC_JRCSF (HIV-1), sequence (P20871 32-848): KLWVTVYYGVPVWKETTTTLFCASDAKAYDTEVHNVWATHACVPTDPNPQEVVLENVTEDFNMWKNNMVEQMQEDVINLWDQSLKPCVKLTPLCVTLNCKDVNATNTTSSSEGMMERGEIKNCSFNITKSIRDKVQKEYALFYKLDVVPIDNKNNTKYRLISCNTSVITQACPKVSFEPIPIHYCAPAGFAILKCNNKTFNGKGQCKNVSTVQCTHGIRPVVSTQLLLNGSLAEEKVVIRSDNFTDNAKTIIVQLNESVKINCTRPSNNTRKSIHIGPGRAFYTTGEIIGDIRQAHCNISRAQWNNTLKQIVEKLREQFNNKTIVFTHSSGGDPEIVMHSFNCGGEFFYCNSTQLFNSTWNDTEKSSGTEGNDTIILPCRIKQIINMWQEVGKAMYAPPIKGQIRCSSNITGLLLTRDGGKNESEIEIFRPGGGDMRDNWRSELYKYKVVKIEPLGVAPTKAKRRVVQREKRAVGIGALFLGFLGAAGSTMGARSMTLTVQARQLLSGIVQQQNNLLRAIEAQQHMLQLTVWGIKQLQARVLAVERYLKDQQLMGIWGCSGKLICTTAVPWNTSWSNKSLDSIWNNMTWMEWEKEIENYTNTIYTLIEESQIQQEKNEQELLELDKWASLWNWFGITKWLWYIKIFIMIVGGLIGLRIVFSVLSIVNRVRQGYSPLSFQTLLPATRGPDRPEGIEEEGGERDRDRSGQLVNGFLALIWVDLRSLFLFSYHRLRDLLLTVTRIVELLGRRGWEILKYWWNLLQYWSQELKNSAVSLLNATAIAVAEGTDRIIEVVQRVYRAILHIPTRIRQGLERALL

[17] = molecular target: HIV-1 Env of NIH-026_ZM135M.PL10a (HIV-1)
[18] = molecular target: HIV-1 Env of pseudovirus NAC_93IN905 (HIV-1)
[19] = molecular target: HIV-1 Env of pseudovirus NAC_92RW020 (HIV-1)
[20] = molecular target: HIV-1 Env of NIH-095_6480.v4.c25 (HIV-1)
[21] = molecular target: HIV-1 Env of pseudovirus NIH-108_T235.47 (HIV-1)
[22] = molecular target: HIV-1 Env of pseudovirus NIH-034_Ce0393 C3 (HIV-1)
[23] = molecular target: HIV-1 Env of NIH-016_SC05.8C11.2344 (HIV-1)
[24] = molecular target: HIV-1 Env of pseudovirus NIH-103_0815.v3.c3 (HIV-1)
[25] = molecular target: HIV-1 Env of pseudovirus NIH-047_Ce704809221 1B3 (HIV-1)
[26] = molecular target: HIV-1 Env of pseudovirus NIH-045_7030102001E5(Rev.) (HIV-1)
[27] = molecular target: HIV-1 Env of NAC_ADA (HIV-1)
[28] = molecular target: HIV-1 Env of NAC_BG505 (HIV-1)
[29] = molecular target: HIV-1 Env of isolate NIH-085_X2088 c9 (HIV-1)
[30] = molecular target: HIV-1 Env of NIH-079_BJOX010000.06.2 (HIV-1)
[31] = molecular target: HIV-1 Env of pseudovirus NIH-026_ZM135M.PL10a (HIV-1)
[32] = molecular target: HIV-1 Env of NIH-038_Ce1172 H1 (HIV-1)
[33] = molecular target: HIV-1 Env of pseudovirus NAC_SF162 (HIV-1)
[34] = molecular target: HIV-1 Env of pseudovirus NIH-036_Ce2010 F5 (HIV-1)
[35] = molecular target: HIV-1 Env of pseudovirus NIH-042_ZM246F.D5 (HIV-1)
[36] = molecular target: HIV-1 Env of NIH-096_6952.v1.c20 (HIV-1)
[37] = molecular target: HIV-1 Env of NIH-048_CNE19 (HIV-1)
[38] = molecular target: HIV-1 Env of pseudovirus NIH-063_0330.v4.c3 (HIV-1)
[39] = molecular target: HIV-1 Env of pseudovirus NIH-094_3817.v2.c59 (HIV-1)
[40] = molecular target: HIV-1 Env of NIH-059_Q461ENVe2 (HIV-1)
[41] = molecular target: HIV-1 Env of isolate NIH-098_89.F1 2 25 (HIV-1)
[42] = molecular target: HIV-1 Env of pseudovirus NIH-071_R1166.c01 (HIV-1)
[43] = molecular target: HIV-1 Env of pseudovirus NIH-038_Ce1172 H1 (HIV-1)
[44] = molecular target: HIV-1 Env of pseudovirus NIH-085_X2088 c9 (clade G) (HIV-1)
[45] = molecular target: HIV-1 Env of isolate NIH-084_X1254 c3 (HIV-1)

Substance: 4E10 (antibody)
- neutralization IC50 [1]: 0.621 µg/mL
- IC80 neutralization [2]: 32.4 µg/mL
- IC80 neutralization [3]: 22.2 µg/mL
- IC80 neutralization [4]: 6.03 µg/mL
- IC50 (µg/ml), TZM-bl cell neutralization assay, pseudovirus [5]: 0.194 µg/mL
- neutralization IC50 [6]: 0.666 µg/mL
- neutralization IC50 [7]: 0.206 µg/mL
- neutralization IC50 [8]: 0.438 µg/mL
- neutralization IC50 [9]: 0.954 µg/mL
- IC80 neutralization [10]: 0.137 µg/mL
- IC80 neutralization [11]: 0.373 µg/mL
- IC80 neutralization [12]: 1.07 µg/mL
- neutralization IC50 [13]: 0.112 µg/mL
- IC50 (µg/ml), TZM-bl cell neutralization assay, pseudovirus [14]: 2.88 µg/mL
- neutralization IC50 [15]: 0.678 µg/mL
- neutralization IC50 [16]: 0.823 µg/mL
- IC80 neutralization [17]: 0.936 µg/mL
- neutralization IC50 [18]: 0.11 µg/mL
- neutralization IC50 [19]: 2.14 µg/mL
- IC80 neutralization [20]: 3.04 µg/mL
- neutralization IC50 [21]: 0.248 µg/mL
- neutralization IC50 [22]: 0.606 µg/mL
- IC80 neutralization [23]: 3.44 µg/mL
- neutralization IC50 [24]: 1.2 µg/mL
- neutralization IC50 [25]: 0.134 µg/mL
- neutralization IC50 [26]: 3.41 µg/mL
- IC80 neutralization [27]: 3.34 µg/mL
- IC80 neutralization [28]: 4.88 µg/mL
- IC80 (µg/ml), TZM-bl pseudovirus neutralization [29]: > 50 µg/mL
- IC80 neutralization [30]: 1.73 µg/mL
- neutralization IC50 [31]: 0.133 µg/mL
- IC80 neutralization [32]: 4.56 µg/mL
- neutralization IC50 [33]: 1.97 µg/mL
- neutralization IC50 [34]: 14.4 µg/mL
- neutralization IC50 [35]: 1.68 µg/mL
- IC80 neutralization [36]: 3.5 µg/mL
- IC80 neutralization [37]: 1.43 µg/mL
- neutralization IC50 [38]: 0.963 µg/mL
- neutralization IC50 [39]: 0.417 µg/mL
- IC80 neutralization [40]: 9.31 µg/mL
- IC80 (µg/ml), TZM-bl pseudovirus neutralization [41]: 21.7 µg/mL
- neutralization IC50 [42]: 0.383 µg/mL
- neutralization IC50 [43]: 8.81 µg/mL
- IC50 (µg/ml), TZM-bl cell neutralization assay, pseudovirus [44]: > 50 µg/mL
- IC80 (µg/ml), TZM-bl pseudovirus neutralization [45]: 11.8 µg/mL

Substance: PGZL1 (antibody)
- neutralization IC50 [1]: 10 µg/mL
- IC80 neutralization [2]: > 50 µg/mL
- IC80 neutralization [3]: > 50 µg/mL
- IC80 neutralization [4]: > 50 µg/mL
- IC50 (µg/ml), TZM-bl cell neutralization assay, pseudovirus [5]: 0.885 µg/mL
- neutralization IC50 [6]: 4.64 µg/mL
- neutralization IC50 [7]: 2.02 µg/mL
- neutralization IC50 [8]: 1.66 µg/mL
- neutralization IC50 [9]: 24.3 µg/mL
- IC80 neutralization [10]: 0.263 µg/mL
- IC80 neutralization [11]: 5.19 µg/mL
- IC80 neutralization [12]: 6.62 µg/mL
- neutralization IC50 [13]: 1.38 µg/mL
- IC50 (µg/ml), TZM-bl cell neutralization assay, pseudovirus [14]: 45.5 µg/mL
- neutralization IC50 [15]: 10.1 µg/mL
- neutralization IC50 [16]: 13.4 µg/mL
- IC80 neutralization [17]: 2.08 µg/mL
- neutralization IC50 [18]: 0.404 µg/mL
- neutralization IC50 [19]: 20.8 µg/mL
- IC80 neutralization [20]: > 50 µg/mL
- neutralization IC50 [21]: 1.54 µg/mL
- neutralization IC50 [22]: 13.5 µg/mL
- IC80 neutralization [23]: 24.6 µg/mL
- neutralization IC50 [24]: 18.7 µg/mL
- neutralization IC50 [25]: 0.738 µg/mL
- neutralization IC50 [26]: 49.6 µg/mL
- IC80 neutralization [27]: 21.8 µg/mL
- IC80 neutralization [28]: > 50 µg/mL
- IC80 (µg/ml), TZM-bl pseudovirus neutralization [29]: > 50 µg/mL
- IC80 neutralization [30]: 6.6 µg/mL
- neutralization IC50 [31]: 0.296 µg/mL
- IC80 neutralization [32]: 6.6 µg/mL
- neutralization IC50 [33]: 12.8 µg/mL
- neutralization IC50 [34]: > 50 µg/mL
- neutralization IC50 [35]: 19.9 µg/mL
- IC80 neutralization [36]: 4.7 µg/mL
- IC80 neutralization [37]: 12.1 µg/mL
- neutralization IC50 [38]: 22.1 µg/mL
- neutralization IC50 [39]: 20.1 µg/mL
- IC80 neutralization [40]: > 50 µg/mL
- IC80 (µg/ml), TZM-bl pseudovirus neutralization [41]: > 50 µg/mL
- neutralization IC50 [42]: 4.87 µg/mL
- neutralization IC50 [43]: 0.948 µg/mL
- IC50 (µg/ml), TZM-bl cell neutralization assay, pseudovirus [44]: > 50 µg/mL
- IC80 (µg/ml), TZM-bl pseudovirus neutralization [45]: > 50 µg/mL

Substance: VRC01 (antibody)
- neutralization IC50 [1]: 0.076 µg/mL
- IC80 neutralization [2]: 6.21 µg/mL
- IC80 neutralization [3]: 0.087 µg/mL
- IC80 neutralization [4]: > 50 µg/mL
- IC50 (µg/ml), TZM-bl cell neutralization assay, pseudovirus [5]: 0.073 µg/mL
- neutralization IC50 [6]: 0.867 µg/mL
- neutralization IC50 [7]: 0.124 µg/mL
- neutralization IC50 [8]: 1.77 µg/mL
- neutralization IC50 [9]: 0.142 µg/mL
- IC80 neutralization [10]: 0.254 µg/mL
- IC80 neutralization [11]: 0.193 µg/mL
- IC80 neutralization [12]: 0.084 µg/mL
- neutralization IC50 [13]: 0.249 µg/mL
- IC50 (µg/ml), TZM-bl cell neutralization assay, pseudovirus [14]: 0.039 µg/mL
- neutralization IC50 [15]: 0.063 µg/mL
- neutralization IC50 [16]: 0.172 µg/mL
- IC80 neutralization [17]: 0.379 µg/mL
- neutralization IC50 [18]: 0.07 µg/mL
- neutralization IC50 [19]: 0.206 µg/mL
- IC80 neutralization [20]: 0.054 µg/mL
- neutralization IC50 [21]: 0.021 µg/mL
- neutralization IC50 [22]: 0.37 µg/mL
- IC80 neutralization [23]: 1.98 µg/mL
- neutralization IC50 [24]: 0.019 µg/mL
- neutralization IC50 [25]: 0.32 µg/mL
- neutralization IC50 [26]: 0.38 µg/mL
- IC80 neutralization [27]: 1.31 µg/mL
- IC80 neutralization [28]: 0.213 µg/mL
- IC80 (µg/ml), TZM-bl pseudovirus neutralization [29]: > 50 µg/mL
- IC80 neutralization [30]: 7.79 µg/mL
- neutralization IC50 [31]: 0.102 µg/mL
- IC80 neutralization [32]: > 50 µg/mL
- neutralization IC50 [33]: 0.262 µg/mL
- neutralization IC50 [34]: 0.153 µg/mL
- neutralization IC50 [35]: 10.7 µg/mL
- IC80 neutralization [36]: 0.097 µg/mL
- IC80 neutralization [37]: 0.512 µg/mL
- neutralization IC50 [38]: 0.033 µg/mL
- neutralization IC50 [39]: > 50 µg/mL
- IC80 neutralization [40]: 0.776 µg/mL
- IC80 (µg/ml), TZM-bl pseudovirus neutralization [41]: > 50 µg/mL
- neutralization IC50 [42]: 0.488 µg/mL
- neutralization IC50 [43]: > 50 µg/mL
- IC50 (µg/ml), TZM-bl cell neutralization assay, pseudovirus [44]: > 50 µg/mL
- IC80 (µg/ml), TZM-bl pseudovirus neutralization [45]: 0.149 µg/mL
